Measured values reported in patent publication US20160207996A1 (ARGEN X N V, published 2016).

T1: hNav1.7-loopA3-llama Fc fusion (human)
T1 construct: also called hNav1.7-loopA3-llFc; loopA3-llamaFc chimera
T1 chain: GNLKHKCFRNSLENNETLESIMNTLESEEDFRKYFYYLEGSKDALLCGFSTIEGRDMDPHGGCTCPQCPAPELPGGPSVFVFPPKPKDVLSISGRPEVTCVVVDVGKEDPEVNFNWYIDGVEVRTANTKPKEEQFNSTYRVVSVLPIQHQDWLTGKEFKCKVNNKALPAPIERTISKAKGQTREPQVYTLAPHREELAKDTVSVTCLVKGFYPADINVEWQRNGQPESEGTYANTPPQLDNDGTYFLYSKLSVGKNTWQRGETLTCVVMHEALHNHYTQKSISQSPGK


Experiments:
Nt-GCGR-hFc = biological target: T2, Nt-GCGR-hFc (human, UniProt P47871 26-136); assay: scFv binding ELISA, periplasmic extract on coated Nt-GCGR
T2 construct: domain: N-terminal domain; also called Nt-GCGR-Fc; recombinant N-terminal domain of GCGR; not shown: hFc

[1] = biological target: T1, hNav1.7-loopA3-llama Fc fusion; assay: Biacore SPR, antigen on CM5 chip, mAb in flow
Procedure: (§1) In a further experiment, affinity of the loopA3-binding mAbs was determined using Biacore Surface Plasmon Resonance (SPR) analysis.

[2] = biological target: T3, GST-tagged hNav1.7-loopA3 (human, UniProt Q15858 269-339); assay: Biacore SPR, antigen on CM5 chip, mAb in flow
T3 construct: monomeric GST-tagged peptide; also called hNav1.7-loopA3-GST; Nav1.7-loopA3-GST; not shown: GST tag
Procedure: as §1

[3] = biological target: T1, hNav1.7-loopA3-llama Fc fusion; assay: ELISA, coated hNav1.7-loopA3-llama Fc, mAb titrated
Procedure: mAbs originating from the loopA3-llama Fc immunization were assayed for their affinity for hNav1.7-loopA3. Therefore, a Maxisorp plate was coated with 10 ng/well of loopA3-llamaFc chimera and incubated overnight at 4° C. The next day, the plate was blocked with PBS+1% casein for 2 hours at RT. Subsequently a concentration gradient of antibodies was applied (range 0.25 pM-66 nM) for another hour. Antibody binding to loopA3 was detected using a HRP-conjugated anti-human Fc antibody (Abcam, Ab7499) (incubation 1 hour at RT, dilution 1/5000 in PBS+0.1% casein), followed by TMB addition and OD620 nm measurement. EC50 values were determined using GraphPad Prism software. For comparison purposes a known hNav1.7-loopA3 binding monoclonal antibody, UCB_932 (US2011/0135662), was tested.

T3 sequence (Q15858 269-339 limits assumed): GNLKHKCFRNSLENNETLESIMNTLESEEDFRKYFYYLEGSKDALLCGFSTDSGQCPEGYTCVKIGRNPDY
T2 sequence (P47871 26-136): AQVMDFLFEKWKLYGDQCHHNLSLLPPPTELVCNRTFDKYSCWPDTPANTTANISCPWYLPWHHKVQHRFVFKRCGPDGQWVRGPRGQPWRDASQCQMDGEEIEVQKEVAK

Binder	ScFv binding ELISA signal (Nt-GCGR-hFc)	Kd [1]	koff [1]	Kd [2]	koff [2]	EC50 [3]
2D11 (antibody, human IgG1, V domains shown) VH: EVQLQESGPGLVKPSQTLSLTCTVSGGSITNSYYASSWIRQPPGKGLEWMGVIIYDGSTYYSPSLKSRTSISRDTSKNQFSLQLSSVTPEDTAVYYCARGLRVAGSYFTDFGTWGQGTQVTVSS VL: SYELTQSPSVSVALRQAAKITCGGDNIASKHAHWYQQKPGQSPVLVIYKDSNRPSGIPERFSGSNSGNTATLTVSGAQAEDEADYYCQVWDSSANAAVFGGGTHLTVLG	–	0.0375 nM	1.26e-05 s⁻¹	0.0879 nM	2.13e-05 s⁻¹	0.071 nM
3F11 (antibody, human IgG1, V domains shown) VH: QVQLVESGGGLVQPGGSLRLSCAASGFTFSSYWMYWVRQAPGKGLEWVSAINTGGGSTYYADSVKGRFTISRDNAKNTLYLQMNSLKPEDTALYYCARGPGYSGSYIEGWAYWGQGTQVTVSS VL: DIVMTQSPTSVTASVGEKVTINCKSSQSVVSGSNQKSYLNWYQQRPGQSPRLLIYHASTQESGIPDRFSGSGSTTDFTLTISSVQPEDAAVYYCQQAYNNPYSFGSGTRLEIK	–	0.0253 nM	1.56e-05 s⁻¹	0.0374 nM	1.77e-05 s⁻¹	0.072 nM
2F12 (antibody, human IgG1, V domains shown) VH: QVQLVESGGGLVQPGGSLRLSCAASGFTFSSYWMYWVRQAPGKGLEWVSAINTGGGSTYYADSVKGRFTISRDNAKNTLYLQMNSLKPEDTALYYCARGPGYSGKYIEGWAYWGQGTQVTVSS VL: DIVMTQSPRSVTASVGEKVFINCKSSQSVVSESNQRSYLNWYQQRPGQSPRLLIYYASTQESGLPDRFSGSGSTTDFTLTISSVQPEDAAVYYCQQAYSAPYSFGSGTRLEIK	–	0.0241 nM	1.92e-05 s⁻¹	0.0169 nM	1.08e-05 s⁻¹	0.057 nM
3E1 (antibody, human IgG1, V domains shown) VH: EVQVQESGGGLVQPGGSLRLSCAASGFTFSSYWMYWVRQAPGKGLEWVSAINTGGGSTYYADSVKGRFTISRDNAKNTLYLQMNSLKPEDTALYYCARGPGYSGKYIEGWAYWGQGTQVTVSS VL: DIVMTQSPSSVTASVGEKVTINCKSSQSVVSGSKQKSYLNWYQQRPGQSPRLLIYYASTQESGIPDRFSGSGSTTDFTLTISSVQPEDAAVYYCQQAYSAPYSFGSGTRLEIK	–	0.2 nM	0.00041 s⁻¹	0.216 nM	0.000356 s⁻¹	0.063 nM
4E8 (antibody, human IgG1, V domains shown) VH: EVQLQESGGGLVQPGGSLRLSCAASGFTFDDYAMSWVRQAPGKGLEWVSAISWNGGSTYYAESMKGRFTISRDNAKNTLYLQMNSLKSKDTAVYYCARRRYGLGSEYDYWGQGTQVTVSS VL: NFMLTQPSAVSVSLGQTARITCQGSSFGSSYAHWYQQMPGQAPILVIYRDSERPSGIPDRFSGSNSGGTATLTISGAQAEDEADYYCQSGSSSGNAHAVFGGGTHLTVLG	–	4.28 nM	0.000422 s⁻¹	45.2 nM	0.00063 s⁻¹	0.129 nM

Continued, values first:

ScFv binding ELISA signal (Nt-GCGR-hFc)	Kd [1]	koff [1]	Kd [2]	koff [2]	EC50 [3]	Binder
0.1	–	–	–	–	–	scFv D1 (scFv) QVQLQESGGGLVQPGGSLRLSCAASGFTFSWYAMSWVRQGPGKGLEWVSGINGGGGSTSYEDSVKGRFTISRDNAKNTLYLEMNSLKPEDTAVYYCARYSDGYSGSYTYTDMDYWGKGTLVSVSSQAVVTQEPSLSVSPGGTVTLTCGLNSGSVTNGNYPGWYQQTPGQAPRALIYSTNSRHSGVPGRYSGSISGNKAALTITGAEPEDEADYYCALWQAAGTVVFGGGTHLTVLG
0.52	–	–	–	–	–	scFv D2 (scFv) ELQLVESGGGLVQPGGSLRLSCATSGFTFSNYYMSWVRQAPGKGPEWVSSIYSDLSTTYYADSVKGRFTISRDRAKNTLYLQMNSLKSEDTAVYYCARLSTVAGVDYWGKGTLVTVSSSYELTQSPSVSVALRQAAKITCGGNDIGSKSAQWYQQKPGQAPVLVIYADSRRPSGIPERFSGSNSGNTATLTISGAQAEDEADYYCQVWDSSANAAVFGGGTHLTVLG
0.987	–	–	–	–	–	scFv D3 (scFv) QVQVQESGGGLVQPGGSLRLSCATSGFTFSNYYMSWVRQAPGKGPEWVSSIYSDLSTTYYADSVKGRFTISRDRAKNTLYLQMNSLKSEDTAVYYCARLSTVAGMDYWGKGTLVTVSSSYELTQSPSVSVALRQTAKITCGGNDIESKSAQWYQQKPDQAPVLVIYADDRRPSEIPERFSGSNSGDTATLTISGAQAEDEADYYCQVWDSSANAAVFGGGTHLTVLG
–	5.1 nM	0.00422 s⁻¹	3.35 nM	0.00254 s⁻¹	0.874 nM	4F6 (antibody, human IgG1, V domains shown) VH: QLQLVESGGGLVQPGGSLRLSCAASGFTFDDYAMSWVRQAPGKGLEWVSAISWNGGSTYYAESMKGRFTISRDNAKNTLYLQMNSLKSKDTAVYYCARRRYGLGSEYDYWGQGTQVTVSS VL: HSAVTQPSAVSVSLGQTARITCQGTNLRSSYVHWYQQMPGQAPVLVIYRDSERPSGIPERFSGSSSGGTATLAISGAQAEDEADYYCQSAHRSESAVFGGGTHLTVLG
–	0.084 nM	2.68e-05 s⁻¹	0.0825 nM	1.84e-05 s⁻¹	0.057 nM	4F7 (antibody, human IgG1, V domains shown) VH: QVQLQESGPGLVKPSQTLSLTCTVSGGSITTSFYAWSWIRQPPGKGLEWMGVIAYDGRTFYSPSLKSRTHISRDTSKNQFSLQLSSVTPEDTAVYYCARGGVVAWSYDYWGQGTQVTVSS VL: SYELTQSPSVSVALRQTAKITCGGNDIGSKSTQWYQQKAGQAPVLVIYADSRRPSGIPERFSGSNSGNTATLTISGAQAEDEADYYCQVWDSRADAAVFGGGTHLTVLG
–	0.12 nM	4.48e-05 s⁻¹	0.0505 nM	1.54e-05 s⁻¹	0.067 nM	4H6 (antibody, human IgG1, V domains shown) VH: QVQLQESGPGLVKPSQTLSLTCTVSGGSITNYGWSWIRQPPGKGLEWMGVIAYDGSTYYSPSLKSRTSISRDTSKNQFSLQLSSVTPEDTAVYYCASAMVTTSSPWVKTFGAWGQGTQVTVSS VL: QAGLTQPPSVSGSPGKTVTISCAGTSSDVGYGNYVSWYQQLPGMAPKLLLYSVNKRASGIADRFSGSKSGNTASLTISGLQSEDEADYYCGCYDSSLSTPVFGGGTKLTVLG
–	0.00181 nM	3.58e-06 s⁻¹	0.000609 nM	6.9e-07 s⁻¹	0.066 nM	6H8 (antibody, human IgG1, V domains shown) VH: EVQLVESGGGLVQPGGTLRLSCAASGFTFSNYWMHWVRQAPGKGLEWVSVIDRGGGGTRYADSVKGRFTISRDNAKNTLYLRMNSLKPEDTALYYCTRDRNGEYDYWGRGTQVTVSS VL: DIQMTQSPSSVTASAGEKVTINCKSSQSVLYSSNQKNYLAWYQQRLGQSPRLLIYWASTRESGVPDRFSGSGSTTDFTLTINNFQPEDAAVYYCQQGYSAPLTFGQGTKVELK
